Experiment: soluble on expression in E. coli; label from the status in PepcDB or PDB records

Question: Which “soluble on expression in E. coli” value does the source give for “MTKKQKEILFCDYFEEWVEVYKVGAIAKITLAKYYNAAKQLRDLCPKLFISDFDRREYQRIINVYAETHEKQTVKDFHHHVKACIKDLFHDGLIDKDPTYRVVIKGAEPTRAKKRKFLQKEELSKLLQSLDMSQIGFGWFVMLVAKTGMRYAEALAITPADFDWTAQTISINKTWDYKYNKGFAKTKTLSSVRTIKIDWQIVGQFKPLIKDFPEDEPIFVEKFGDGTYKRQFNSTINNFLAVKCN” here?
Answer: Its value is “not soluble”.

Question: Which “soluble on expression in E. coli” value does the source give for “MQQVFNVSVPVPDDVVIISKEEYLNLLSDNEQGKWWDIDNLQELLGIGRSKLINDILLNPDIKKEVDLSINPNGFIVYPKGKGSRYKILATKARKYFEDNFGS” here?
Answer: The value was “not soluble”.

Question: Which “soluble on expression in E. coli” value does the source give for “MGHHHHHHSHMVGWQEGANHKNGAGRSQKQEMAEKMVPEVASGEEIGGRSEAGRESPDLFRPNTVEARDRPAGPPFSKSASVRVLQRSRTNRDYIPIEHIQSPIGIYNML” here?
Answer: The value was “not soluble”.

Question: With “MAHMVNGKVALVTGAAQGIGRAFAEALLLKGAKVALVDWNLEAGVQCKAALHEQFEPQKTLFIQCDVADQQQLRDTFRKVVDHFGRLDILVNNAGVNNEKNWEKTLQINLVSVISGTYLGLDYMSKQNGGEGGIIINMSSLAGLMPVAQQPVYCASKHGIVGFTRSAALAANLMNSGVRLNAICPGFVNTAILESIEKEENMGQYIEYKDHIKDMIKYYGILDPPLIANGLITLIEDDALNGAIMKITTSKGIHFQDYGSKENLYFQ” as the sequence, how does the “soluble on expression in E. coli” value read?
Answer: The value was “soluble”.

Question: Which “soluble on expression in E. coli” value does the source give for “MQDPRHPQGLPLSPGLPKRQRQDRTIYNWKQQEVLENHFKEEQYPDYDTRQELAEMLNLREYQVQVWFKNRRAKRSREQWFQKQLQQLQKHPQQQHPQQQHPQQQLQQQQPQQQPQQQQPQQQQLHQQPQ” here?
Answer: Its value is “soluble”.

Question: Which “soluble on expression in E. coli” value does the source give for “MANQLAAVLGTGQTHYVAKRHDVSMAGLVREAIDRAMEDARVGWDDIDAVVIGKAPDLFEGSMMPELAMSDALGANGKPLLRVHTAGSVGGSTAVVASSLVKSGVHKRVLTVAWEKQSESNAMWALSTPIPFHMPVGAGAGGYFAPHVRSYIRRSGAPDHIGAMVAVKDRLNGSLNPYAHLKQPDITLESVQASQMLWDPIRYDETCPSSDGACAMVIGNEEAAEQVTADGREVAWIHATAMRTEPTTFAGRDQVNPQAGRDAAAALWKAAGIKDPLDEIDVAEIYVPFSWFEPMWLENLGFVSEGEGWKLTEAGETAIGGRLPLNASGGVLSSNPIGASGMIRFAESAMQVMHRAGDHQVKDARKALGHAYGGGSQYFSMWVVGSDRPNN” here?
Answer: Its value is “not soluble”.

Question: With “METTQTLRFKTKALAVLSKCYDHAQTHLKGGVLQVNLLSVNYGGPRLAAVANAGTAGLISFEVSPDAVAEWQNHQSPEEAPAAVSFRNLAYGRTCVLGKELFGSAVEQASLQFYKRPQGGSRPEFVKLTMEYDDKVSKSHHTCALMPYMPPASDRLRNEQMIGQVLLMPKTASSLQKWARQQGSGGVKVTLNPDLYVTTYTSGEACLTLDYKPLSVGPYEAFTGPVAKAQDVGAVEAHVVCSVAADSLAAALSLCRIPAVSVPILRFYRSGIIAVVAGLLTSAGDLPLDLSVILFNHASEEAAASTASEPEDKSPRVQPLGTGLQQRPRHTVSPSPSPPPPPRTPTWESPARPETPSPAIPSHSSNTALERPLAVQLARKRTSSEARQKQKHPKKVKQAFNPLI” as the sequence, how does the “soluble on expression in E. coli” value read?
Answer: The value was “soluble”.

Question: Which “soluble on expression in E. coli” value does the source give for “MKIQELKLFNGLTEDELQRSLVCSQSNIVEYEKDDYIFSQGERPRWIYMILSGEVLLEQINMAGRQTYAEYLGERQQFGVVDLFLKRKQYSYSARARSHVKLLKISSHFFYGTCENNCMHHSKILFNMMGVFAEEAEKKSKKIQLLTCGSLRQRIALYLLQNSGENKKVELMMNREELAASLNAARPSLSRELSQMQDEGIIKMEGRKSIKILDYSRLQEDLADVSD” here?
Answer: The value was “not soluble”.

Question: Which “soluble on expression in E. coli” value does the source give for “MSVSNKLGDLASKVYENVLLEEVKKYPRPRHIGIITDGNRRYARNVGISENEGHVKGKEKVEEVVDWCMELDIRIVTFYAFSTENFRRSPEEVDFLFHLIDNAFKSLLKDERVYKNRINVKVIGNLSILPAYLRQTIHIVEETTKNFNNYQLNLAIGYGGREEILDAIKRITRDAMDGKLNIDELDEEKFRMYLYDGRIPDPDLILRTSGEERISNFLLWQSAYSELYFSDVYWPEFSKLDFLRAIYSYQRRQRRFGR” here?
Answer: Its value is “soluble”.

Question: With “MEWKGRDVISIRDFSKEDIEVVLSTAERLEKEMKEKGQLEYAKGKILATLFFEPSTRTRLSFESAMHRLGGSVIGFAEASTSSVKKGESLRDTIKTVEQYSDVIVIRHPKEGAARLAAEVADIPVINAGDGSNQHPTQTLLDLYTIKKEFGTIDGLKIGLLGDLKYGRTVHSLAEALAFYDVELYLISPELLRMPKHIVEELRERGMKIVETTKLEEVIGELDVLYVTRIQKERFPDEQEYLKVKGSYQVNLKILENVKDSLRIMHPLPRVDEIHPEVDKTKHAIYFKQVFNGVPVRMALLALVLGVI” as the sequence, how does the “soluble on expression in E. coli” value read?
Answer: Its value is “soluble”.

Question: For “MGSDKIHHHHHHMLERAVTYKNNGQINIILNGQKQVLTNAEAEAEYQATLQKNEAKHGILKEIEKEMSALVGMEEMKRNIKEIYAWIFVNQKRAEQGLKVGKQALHMMFKGNPGTGKTTVARLIGKLFFEMNVLSKGHLIEAERADLVGEYIGHTAQKTRDLIKKSLGGIWFIDEAYSLARGGEKDFGKEAIDTLVKHMEDKQHEFILILAGYSREMDHFLSLNPGLQSRFPISIDFPDYSVTQLMEIAKRMIDEREYQLSQEAEWKLKDYLMTVKSTTSPIKFSNGRFVRNVIEKSIRAQAMRLLMGDQYLKSDLMTIKSQDLSIKEEASGSA”, which “soluble on expression in E. coli” value is on record?
Answer: Its value is “not soluble”.

Question: For “MGSDKIHHHHHHMQTLPTPTTSSNTANQSTFDTTIKRRKTRPVKVGNVTIGGGYPVVVQSMINEDTLDIDGSVAAIRRLHEIGCEIVRVTVPSIAHAVALAEIKQKLITTYQDVPIVADVHHNGMKIALEVAKHIEKVRINPGLYVFEKPNTNRTEYTQAEFEEIGEKIRETLAPLVITLRDQGKAMRIGVNHGSLAERMLFTYGDTPEGMVESALEFIRICESLDFRNIVISMKASRVPVMVAAYRLMAKRMDDLGMDYPLHLGVTEAGDGEYGRIKSTAGIATLLADGIGDTIRVSLTEAPEKEIPVCYSILQALGLRKTMVEYVACPSCGRTLFNLEEVLHKVRESTKHLTGLDIAVMGCIVNGPGEMADADYGYVGKTPGYISLYRGREEIKKVPEDKGVEELINLIKADGRWVDP”, which “soluble on expression in E. coli” value is on record?
Answer: The value was “not soluble”.

Question: With “AFINAHTHFEFSNNKASFDYGSFSGWLGSVLNNGGAILENCQGAIQNAISTQLKSGVGSVGAISNHLIEVNLLKESPLNAVVFLEFLGSSYSLEKLKAFEAKFKELKDLEDKKLKAALAVHAPYSVQKDMALSVIQLAKDSQSLLSTHFLESLEELEWVENSKGWFENFYQHFLKESHFKSLYKGANDYIDMFKDTHTLFVHNQFASLEALKRIKSQVKNAFLITCPFSNRLLSGQALDLERTKEAGLSVSVATDGLSSNISLSLLDELRAFLLTHNMPLLELAKIALLGATRHGAKALALNNG” as the sequence, how does the “soluble on expression in E. coli” value read?
Answer: Its value is “not soluble”.

Question: For “MGSDKIHHHHHHMPELATREFWKDLQPIPDCFKPDAKPEVYLRNAPTEDERLYVPFTETVKSRPLWISPSENRWCDILMATSAGLVNRHYHPHEVFAYTISGKWGYLEHDWTATAGDFVYETPGEGHTLVAYEHEQPMRAFFIVKGPLVWLDEKGNADGIFDVHDYIAMCREHYDKIGVGAAYIDSLFR”, which “soluble on expression in E. coli” value is on record?
Answer: The value was “not soluble”.

Question: Which “soluble on expression in E. coli” value does the source give for “MHKVQRSVLVPYSAAQMFDLVADVEKYPEFMPWCGGAEVHSRSEHGMQASILISFAGLKQRFSTRNTHDYPQRIDLELVDGPFSMLVGHWVFQPLAEDACKVLFTLEYAFSNRALEMVVGPVFNRIAASFIDSFTKRAQAKYGEAAALEHHHHHH” here?
Answer: The value was “soluble”.

Question: With “GMATLGANASLYSEQHRITYYECDRTGRATLTTLIDIAVLASEDQSDALGLTTEMVQSHGVGWVVTQYAIDITRMPRQDEVVTIAVRGSAYNPYFAYREFWIRDADGQQLAYITSIWVMMSQTTRRIVKILPELVAPYQSEVVKRIPRLPRPISFEATDTTITKPYHVRFFDIDPNRHVNNAHYFDWLVDTLPATFLLQHDLVHVDVRYENEVKYGQTVTAHANILPSEVADQVTTSHLIEVDDEKCCEVTIQWRTLPEPIQ” as the sequence, how does the “soluble on expression in E. coli” value read?
Answer: The value was “soluble”.

Question: With “MGSDKIHHHHHHMFKDEKTPDEYAEEARSDIAAGNYAEAIEKIDKAIDKEPRNPSLHLIRADALYRQGNYSSAIEELNFTEHMDKNNPELFSLKSICYGSMGDFKRSKEEADKAIKADQSYPFAYYNRAAALRGLGDVDGAEKDFRKYIEMQPSDPDPHYDLAEIYFEKKDYKKAMEEVKAVLRNDKSNEKAYDLKLQIHLATNDGEGYFKALLEAFKNTENFKYIGTLTDGLIGIGSYDTAEDILKQFIKVYEKEPYLYDLLARTYDQEGKAKEADETYNTLLRLNNSRESHIYWFDYLLDSGRYDDLLSEIEKSGFKDEEILEIEYIAQDASGKHEEALKTAGELVKMDQTPYSRSLYATQLRKLGKLEDALTYLGSGDQDSDEVQFEKFNILLEMGNHSLAMESLKNSITASDDDEERLGHLITGISSAISKADFNTVNNFLDGLKMPEEEENIAVYALKGIVSGIFESYSKGKDMLIGLDEDRDNVCDFASYLANLMQGKASEFLNKFIEENCKKPEE” as the sequence, how does the “soluble on expression in E. coli” value read?
Answer: The value was “not soluble”.

Question: For “SLKNSESHGEADGGLRERKKRETKKRLTEKGIALFLERGFDNTTLDEIASAAGISRRTFFYYFKSKDEILLSLQSGIGEMLADAVRRAPSSSTPIEVVRDAAIGVCKVIPTNDMIEMDRLMRTSPSVQARKQVSYVQQEGEIYEALSERWPEPERSTALRVVAMLSVGAMRIAGDIFSQEKGVRPMVDLLEEAFGSLIQEVRSGDPRV”, which “soluble on expression in E. coli” value is on record?
Answer: The value was “soluble”.

Question: With “SLHRLNKKAGDYGEKAAEIYLKKSGYTILNRNFRCFLGEVDIIAKNKDYITFVEVKSRWSDTYGLPCEAVNYRKKLKIYRTAKYYIASKSLINYNFRFDVIEVILNHQNDSYDLKFIENAFQI” as the sequence, how does the “soluble on expression in E. coli” value read?
Answer: The value was “soluble”.

Question: Which “soluble on expression in E. coli” value does the source give for “MQATLIKPTIFTHQPILEKLFKSQSMTQEESHQLFAAIVRGELEDSQLAAALISMKMRGERPEEIAGAASALLADAQPFPRPDYDFADIVGTGGDGTNSINISTASAFVAASCGAKVAKHGNRSVCQPLAGSCDLLQAFGIRLDMSAEDSRQALDDLNVCFLFAPQYHTGFRHAMPVRQQLKTRTIFNVLGPLINPARPPKALIGVYSPELVLPIAQALKVLGYKNAAVVHGGGMDEVAIHTPTQVAELNNGEIESYQLSPQDFGLQSYSLNALQGGTPEENRDILARLLQGKGDAAHARQVAANVALLLKLFGQDNLRHNAQLALETIRSGTAFERVTALAARG” here?
Answer: The value was “soluble”.

Question: For “NAIMDLQTRNTRGLSTLVVRDIGELMMAGDMAVIERYVADVRGKGAVLDLRIYDAAGRPAGKKQDAPDGEVQAALTSGATAEKRHKVDGRHVLSFIVPLANEVRCQSCHEQGARFNGAMLLTTSLEEGYAGARN”, which “soluble on expression in E. coli” value is on record?
Answer: The value was “soluble”.

Question: For “MGYVPIKNDYNEAQNKDSQSFLIMGLDNTIERKLGTTRTDAMMVITVNNKTKKITYLSLPRDSFVQIDAKNYQGMQRIEAAYTYDGPTASVNTVEKLLNIPINHYVVFNFLSFIKLIDAVGGIDVNVKQAFDGVTKDGPGSIHFDAGKQHLDGTKALSYARERHSDNDIMRGFRQQEIIQAVEDKLKSGQSIMKIMDIIDSLNGNIQTDVDSNELTHLVKEGLTWTNYDKQQLSFDWRTFSNEGRSMVELYPDSIENVRHQLRVSLNLEKPDERDQDGYVFHTNGEFLYQSDYTVQDEAAEENEMTSINGNTYIGVPGNTQTGPLPSVKTENGFIKLEHHHHHH”, which “soluble on expression in E. coli” value is on record?
Answer: The value was “soluble”.

Source: the DeepSol protein solubility set
